Measurements from article PMC9601805, “Characterization of the Escherichia coli pyridoxal 5′‐phosphate homeostasis protein (YggS): Role of lysine residues in PLP binding and protein stability” (Protein Science : A Publication of the Protein Society, 2022).

Key:
apo‐YggS [1] = target: T1, apo‐YggS (Escherichia coli, UniProt P67080); experiment: biochemical; format: binding
T1 construct: made in house; host or cells: E. coli HMS174(DE3)
Experimental: Equilibrium binding analyses were carried out by measuring the decrease of protein intrinsic fluorescence observed upon the addition of increasing PLP concentrations to a fixed concentration of apo‐YggS (Figure 1b).
Dissociation constants were calculated from saturation curves obtained measuring the protein fluorescence emission intensity as a function of increasing PLP concentration. […] Fluorescence emission spectra were recorded from 310 to 450 nm upon excitation at 280 nm. Excitation and emission slits were set at 3 and 5 nm, respectively.

E. coli ΔyggS = experiment: 4dPN sensitivity assay and complementation by YggS variants in trans; format: cell-based, Escherichia coli; conditions: for complementation of the 4dPN sensitivity phenotype of ΔyggS: expression in trans, M9 0.4% glucose, 1 μM PN, 20 μl of 25 mM 4dPN
Experimental: Bacteria were grown in Luria‐Bertani (LB; Tryptone 10 g L^− 1, Yeast extract 5 g L^− 1, NaCl 10 g L^− 1) or M9 minimal medium (Cold Spring Harbor Protocols, Cold Spring Harbor, NY) at 37°C, unless otherwise specified. Growth media were solidified with agar (16 g L^− 1; Fisher Scientific) for the preparation of plates. 4dPN toxicity assays were performed on thin (20 ml) M9 minimal medium plates containing 0.4% glucose (carbon source), ampicillin (100 μg ml^−1), 1 μM PN, and 0.02% or 0.2% arabinose when appropriate.
Wild‐type yggS was amplified by PCR with primers DH596 and DH598 from E. coli BW25113 and cloned in pBAD24 using restriction sites SphI and NcoI to give pBY291.3. The pBY291.3 plasmid and its derivatives were then used as templates with the NEB Q5 Site‐Directed Mutagenesis Kit and the primer pairs indicated in Table S4 to introduce site‐directed residue mutant constructs. All constructs were verified by sequencing and transformed into E. coli wild‐type (BW25113) and ΔyggS (VDC6594) electrocompetent cells for use in physiological studies. Plasmid transformations were performed following standard procedures and protein expression from each construct was confirmed by SDS‐PAGE and western blot analysis.
Three isolated colonies of each strain were inoculated into 5 ml LB Amp 200 μg ml^− 1 and incubated at 37°C and 200 rpm overnight. Overnight cultures were diluted 1:500 into 5 ml fresh LB Amp 200 μg ml^− 1 ± 0.02% or 0.2% arabinose and grown at 37°C, shaking. Once cultures reached midlog growth (OD600 of 0.4–0.7) samples were taken from each culture for western blot analysis (below) then cells were again incubated until stationary growth was reached (~6 hr). Cells were harvested by centrifugation then washed twice with and resuspended in 1x PBS. Optical density of washed cells was measured at 600 nm in 1 ml cuvettes (Fisher Scientific) using a BioSpec‐mini DNA/RNA/Protein analyzer (Shimadzu Biotech) and each strain was normalized to an OD600 of 0.006 in 3 ml 1x PBS. […]

apo‐YggS [2] = target: T1, apo‐YggS; experiment: biochemical; format: binding; conditions: B6 vitamers and analogs
Experimental: The thermal stability of holo‐ and apo‐YggS forms was analyzed by differential scanning fluorimetry (DSF).
Differential scanning fluorimetry (DSF) assays were performed on a Real Time PCR Instrument (CFX Connect Real Time PCR system, Bio‐Rad, Hercules, CA). In a typical experiment, 2 μM WT and variant apo‐YggS forms in 50 mM NaHEPES, pH 7.5, 50 mM NaCl, and Sypro Orange (5x, Thermo Scientific) were mixed with various ligands (total volume of 25 μl) in a 96‐well PCR plate. […] All samples were run in triplicate. Denaturation profiles were analyzed as described in Nardella et al.[40]

[3] = PLP binding equilibrium of YggS WT and variant forms, intrinsic fluorescence change; conditions: E. coli YggS form 0.1 μM, 50 mM NaHEPES pH 7.6, 25°C, excitation 280 nm; mean ± SEM; read-out: K D (nM) of the PLP binding equilibrium
Experimental: Analyses took advantage of YggS intrinsic fluorescence decrease observed upon binding of PLP. Dissociation constants were calculated from saturation curves obtained measuring the protein fluorescence emission intensity as a function of increasing PLP concentration. Fluorescence emission measurements were carried out at 25°C, in 50 mM NaHEPES buffer at pH 7.6 with a FluoroMax‐3 Jobin Yvon Horiba spectrofluorometer, using a 1‐cm path length quartz cuvette. All analyzed YggS forms were used at a final subunit concentration of 0.1 μM. Fluorescence emission spectra were recorded from 310 to 450 nm upon excitation at 280 nm. Excitation and emission slits were set at 3 and 5 nm, respectively. Emission fluorescence values between 330 and 340 nm were averaged and analyzed using the following quadratic equation to obtain K D value: (1) Frel=Finf−F0×PLP+[YggS]+KD−PLP+[YggS]+KD^2−4[YggS]PLP/2/[YggS]+F0

[4] = Differential scanning fluorimetry (DSF), apparent Tm of YggS forms; format: physicochemical; conditions: for T m (°C) Apo +2 μM PLP: 2 μM protein + 2 μM (equimolar) PLP; for T m (°C) Apo + 300 μM PLP: 2 μM protein + 300 μM PLP; for T m (°C) Apo: apo-form, 2 μM protein, no PLP
Experimental: Differential scanning fluorimetry (DSF) assays were performed on a Real Time PCR Instrument (CFX Connect Real Time PCR system, Bio‐Rad, Hercules, CA). In a typical experiment, 2 μM WT and variant apo‐YggS forms in 50 mM NaHEPES, pH 7.5, 50 mM NaCl, and Sypro Orange (5x, Thermo Scientific) were mixed with various ligands (total volume of 25 μl) in a 96‐well PCR plate. Fluorescence was measured from 25°C to 95°C in 0.4°C/30 s steps (excitation 450–490 nm; detection 560–580 nm). All samples were run in triplicate. Denaturation profiles were analyzed as described in Nardella et al.[40]

apo‐eSHMT = apo‐eSHMT (Escherichia coli, UniProt P0A825); conditions: for PLP transfer kinetics compared with WT YggS: transfer to apo-SHMT
Experimental: We set up a novel in vitro discontinuous assay in which PLP transfer from holo‐YggS to the apo‐form of eSHMT could be followed (see Section 4 for details). In this assay, the increase in SHMT activity is measured as PLP dissociates from holo‐YggS and binds to apo‐SHMT, forming the catalytically active holo‐SHMT. […] The binding kinetics of free PLP to either apo‐YggS or apo‐SHMT was measured by manually mixing 20 μM free PLP with 20 μM of protein, observing the formation of the internal aldimine at 420 nm.
WT Holo‐YggS (20 μM with respect to PLP) was mixed with 20 μM apo‐eSHMT in 50 mM NaHEPES buffer at pH 7.6.

[5] = Covalent (Schiff base) PLP binding judged by absorption spectra; conditions: ~416–420 nm band
Experimental: Our strategy was to start from the K36A variant and gradually add further variations so as to obtain all possible combinations of double, triple, and quadruple variants. Variations of the last two residues at the C‐terminal end of the protein, K233 and K234, were always introduced together and are therefore considered as a single K233A/K234A variation.
All spectroscopic measurements were carried out at 20°C in 20 mM NaHEPES pH 7.5. UV–visible spectra were recorded with a Hewlett‐Packard 8453 diode‐array spectrophotometer. Far‐UV (190–250 nm) and Near‐UV–visible (250–500 nm) CD spectra were measured with a Jasco 710 spectropolarimeter equipped with a DP 520 processor using 0.1‐cm (far‐UV) or 1‐cm path length quartz cuvettes and results were expressed as ellipticity [Θ]. Absorption spectra of WT and variant forms were deconvoluted into their component bands using Metzler's band‐shape analysis method.[22]

[6] = 20 μM holo-YggS, 20 μM apo-SHMT, 37°C

Chain of apo‐eSHMT (P0A825 whole entry): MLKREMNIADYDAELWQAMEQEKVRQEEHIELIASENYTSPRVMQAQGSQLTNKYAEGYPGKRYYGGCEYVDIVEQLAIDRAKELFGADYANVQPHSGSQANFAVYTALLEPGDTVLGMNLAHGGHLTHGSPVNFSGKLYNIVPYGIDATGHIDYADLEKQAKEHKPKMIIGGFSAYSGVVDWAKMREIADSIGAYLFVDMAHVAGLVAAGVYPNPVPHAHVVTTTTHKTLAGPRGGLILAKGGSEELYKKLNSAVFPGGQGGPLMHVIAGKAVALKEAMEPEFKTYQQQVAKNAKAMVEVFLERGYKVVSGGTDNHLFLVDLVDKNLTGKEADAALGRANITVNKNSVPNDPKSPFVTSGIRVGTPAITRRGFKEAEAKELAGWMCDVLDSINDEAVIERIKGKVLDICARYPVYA

Molecule: Cc1ncc(CO)c(C)c1O [4dPN, 4‐deoxypyridoxine, reference compound]
- change in fluorescence emission attributable to binding (apo‐YggS [1]; WT apo-YggS): could only be detected with PL and PNP
- 4dPN sensitivity (ring of growth inhibition) (E. coli ΔyggS; 20 μl of 25 mM 4dPN in central well, M9 minimal medium with 1 μM PN): clear 4dPN sensitivity phenotype

Molecule: Cc1ncc(CO)c(C=O)c1O [PL, pyridoxal]
- Kd (apo‐YggS [1]; dissociation constant (K D), ligand binding to WT apo-YggS, fluorescence change, 50 mM NaHEPES pH 7.6): 57000 ± 20000 nM
- binding to apo-YggS by DSF (apo‐YggS [2]): only PL and PNP bind

B1: WT: recombinant His-tagged wild-type E. coli YggS, the PLP homeostasis protein (PLPHP) (protein)
chain: MNDIAHNLAQVRDKISAAATRCGRSPEEITLLAVSKTKPASAIAEAIDAGQRQFGENYVQEGVDKIRHFQELGVTGLEWHFIGPLQSNKSRLVAEHFDWCHTIDRLRIATRLNDQRPAELPPLNVLIQINISDENSKSGIQLAELDELAAAVAELPRLRLRGLMAIPAPESEYVRQFEVARQMAVAFAGLKTRYPHIDTLSLGMSDDMEAAIAAGSTMVRIGTAIFGARDYSKK
modifications: PLP covalently bound to Lys36 through a Schiff base linkage; left off: His-tag, end not stated, kept
- Kd [3]: 1.3 ± 0.8 nM
- T m (°C) Apo +2 μM PLP [4]: 70.8 ± 0.8 °C
- T m (°C) Apo +2 μM PLP ([4]; listed as apo‐YggS): 70 °C
- T m (°C) Apo + 300 μM PLP [4]: 82.2 ± 0.1 °C
- T m (°C) Apo + 300 μM PLP ([4]; listed as apo‐YggS): about 82 °C
- T m (°C) Apo [4]: 55.1 ± 0.3 °C
- T m (°C) Apo ([4]; listed as apo‐YggS): 56 °C
- PLP initially bound to YggS transferred to SHMT at equilibrium (apo‐eSHMT; [6]): approximately 15%
- time to reach PLP transfer equilibrium (apo‐eSHMT; [6]): about 30 min
- rate constant of PLP transfer (apo‐eSHMT; 20 μM holo-YggS, 20 μM apo-SHMT, 37°C, 50 mM NaHEPES pH 7.6): 0.14 ± 0.02 min⁻¹
- complementation of the 4dPN sensitivity phenotype of ΔyggS (E. coli ΔyggS): complemented

B2: K137A: E. coli YggS single lysine variant K137A (protein)
chain: MNDIAHNLAQVRDKISAAATRCGRSPEEITLLAVSKTKPASAIAEAIDAGQRQFGENYVQEGVDKIRHFQELGVTGLEWHFIGPLQSNKSRLVAEHFDWCHTIDRLRIATRLNDQRPAELPPLNVLIQINISDENSASGIQLAELDELAAAVAELPRLRLRGLMAIPAPESEYVRQFEVARQMAVAFAGLKTRYPHIDTLSLGMSDDMEAAIAAGSTMVRIGTAIFGARDYSKK
modifications: left off: His-tag, C-terminal, state not stated
- Kd [3]: 1.8 ± 1.9 nM
- T m (°C) Apo +2 μM PLP [4]: 71.5 ± 0.1 °C
- T m (°C) Apo + 300 μM PLP [4]: 82.5 ± 0.1 °C
- T m (°C) Apo [4]: 60.3 ± 0.1 °C
- PLP transfer kinetics compared with WT YggS (apo‐eSHMT): same transfer kinetics as that observed with WT YggS
- complementation of the 4dPN sensitivity phenotype of ΔyggS (E. coli ΔyggS): failed to complement
- capability to bind PLP covalently as a Schiff base [5]: able to bind PLP as a Schiff base

B3: K36A/K38A/K137A: E. coli YggS triple lysine variant (protein)
chain: MNDIAHNLAQVRDKISAAATRCGRSPEEITLLAVSATAPASAIAEAIDAGQRQFGENYVQEGVDKIRHFQELGVTGLEWHFIGPLQSNKSRLVAEHFDWCHTIDRLRIATRLNDQRPAELPPLNVLIQINISDENSASGIQLAELDELAAAVAELPRLRLRGLMAIPAPESEYVRQFEVARQMAVAFAGLKTRYPHIDTLSLGMSDDMEAAIAAGSTMVRIGTAIFGARDYSKK
modifications: left off: His-tag, C-terminal, state not stated
notes: E. coli YggS triple lysine variant
- Kd [3]: 43 ± 19 nM
- T m (°C) Apo +2 μM PLP [4]: 69.4 ± 0.1 °C
- T m (°C) Apo + 300 μM PLP [4]: 75.2 ± 1.2 °C
- T m (°C) Apo [4]: 68.9 ± 0.2 °C
- PLP transfer kinetics compared with WT YggS (apo‐eSHMT): faster and much more extensive transfer of PLP

B4: ΔK233/K234: E. coli YggS variant lacking the last two C-terminal residues K233 and K234 (protein)
chain: MNDIAHNLAQVRDKISAAATRCGRSPEEITLLAVSKTKPASAIAEAIDAGQRQFGENYVQEGVDKIRHFQELGVTGLEWHFIGPLQSNKSRLVAEHFDWCHTIDRLRIATRLNDQRPAELPPLNVLIQINISDENSKSGIQLAELDELAAAVAELPRLRLRGLMAIPAPESEYVRQFEVARQMAVAFAGLKTRYPHIDTLSLGMSDDMEAAIAAGSTMVRIGTAIFGARDYS
modifications: left off: His-tag, N-terminal, state not stated
- Kd [3]: 2.8 ± 0.7 nM
- T m (°C) Apo +2 μM PLP [4]: 73.1 ± 0.3 °C
- T m (°C) Apo + 300 μM PLP [4]: 84.0 ± 0.4 °C
- T m (°C) Apo [4]: 61.4 ± 0.8 °C
- capability to bind PLP covalently as a Schiff base [5]: able to bind PLP as a Schiff base
